Measurements reported in patent US20200405854A1, “Combination Therapies Comprising Daratumumab, Bortezomib, Thalidomide and Dexamethasone and Their Uses” (Janssen Biotech, Inc., priority 2019, published 2020).
Read-outs that look alike come from different tables or passages of the source.

Key:
[1] = system: patients with relapsed or refractory multiple myeloma; experiment: Study GEN501 open-label dose escalation monotherapy trial, efficacy; format: in vivo, human
Source text: (§1) Treatment continued until unacceptable toxicity or disease progression.
Seventy-four percent of patients had received prior ASCT. Prior therapies included bortezomib (100%), lenalidomide (95%), pomalidomide (36%) and carfilzomib (19%).

[2] = system: patients with multiple myeloma
[3] = Solution pH and storage of diluted solution; format: physicochemical
Source text: Prepare the solution for infusion using aseptic technique as follows: • Calculate the dose (mg), total volume (mL) of DARZALEX solution required and the number of DARZALEX vials needed based on patient actual body weight. • Check that the DARZALEX solution is colorless to pale yellow. […] Infusion bags/containers must be made of either polyvinylchloride (PVC), polypropylene (PP), polyethylene (PE) or polyolefin blend (PP+PE). Dilute under appropriate aseptic conditions. Discard any unused portion left in the vial. • Gently invert the bag/container to mix the solution. […] The diluted solution may develop very small, translucent to white proteinaceous particles, as daratumumab is a protein. […] (59° F.−77° F.) and in room light. Diluted solution may be kept at room temperature for a maximum of 15 hours (including infusion time). • If not used immediately, the diluted solution can be stored prior to administration for up to 24 hours at refrigerated conditions 2° C.−8° C. (36° F.−46° F.) and protected from light.
DARZALEX is supplied as a colorless to pale yellow preservative-free solution for intravenous infusion in single-dose vials. The pH is 5.5.

[4] = system: patients with multiple myeloma; experiment: Immunogenicity, anti-daratumumab antibodies; format: in vivo, human
Source text: As with all therapeutic proteins, there is the potential for immunogenicity. The detection of antibody formation is highly dependent on the sensitivity and specificity of the assay. Additionally, the observed incidence of antibody (including neutralizing antibody) positivity in an assay may be influenced by several factors including assay methodology, sample handling, timing of sample collection, concomitant medications, and underlying disease. For these reasons, comparison of the incidence of antibodies to daratumumab in the studies described below with the incidence of antibodies in other studies or to other products may be misleading. […] One patient administered DARZALEX as combination therapy, developed transient neutralizing antibodies against daratumumab. However, this assay has limitations in detecting anti-daratumumab antibodies in the presence of high concentrations of daratumumab; therefore, the incidence of antibody development might not have been reliably determined.

[5] = system: patients with newly diagnosed multiple myeloma eligible for ASCT; experiment: CASSIOPEIA, adverse reactions and laboratory abnormalities
[6] = biological target: T1, CD38 on red blood cells (RBCs) (Homo sapiens, UniProt P28907); experiment: Indirect Antiglobulin Test (Indirect Coombs test) interference
T1 construct: endogenous in cells; host or cells: red blood cells (reagent RBCs / donor RBCs in blood-bank testing)
Source text: Daratumumab binds to CD38 on red blood cells (RBCs) and results in a positive Indirect Antiglobulin Test (Indirect Coombs test). Daratumumab-mediated positive indirect antiglobulin test may persist for up to 6 months after the last daratumumab infusion. Daratumumab bound to RBCs masks detection of antibodies to minor antigens in the patient's serum [see References (15)]. The determination of a patient's ABO and Rh blood type are not impacted [see Drug Interactions (7.1)].
Daratumumab binds to CD38 on RBCs and interferes with compatibility testing, including antibody screening and cross matching. Daratumumab interference mitigation methods include treating reagent RBCs with dithiothreitol (DTT) to disrupt daratumumab binding [see References (15)] or genotyping. Since the Kell blood group system is also sensitive to DTT treatment, K-negative units should be supplied after ruling out or identifying alloantibodies using DTT-treated RBCs.

[7] = Cardiac electrophysiology; settings: non-clinical or clinical data
[8] = system: adult patients with relapsed and refractory multiple myeloma; experiment: Monotherapy safety, three open-label clinical trials; format: in vivo, human
Source text: Serious adverse reactions were reported in 51 (33%) patients.

[9] = Clinical pharmacokinetics; format: in vivo, human
[10] = system: patients with relapsed or refractory multiple myeloma; experiment: SIRIUS open-label monotherapy trial, efficacy; format: in vivo, human
Source text: as §1
The median patient age was 63.5 years (range: 31 to 84 years), 49% were male and 79% were Caucasian. Patients had received a median of 5 prior lines of therapy. […] Prior therapies included bortezomib (99%), lenalidomide (99%), pomalidomide (63%) and carfilzomib (50%).

[11] = system: NK cells; experiment: Pharmacodynamics, NK cells; format: in vivo, human; settings: peripheral whole blood and bone marrow
Source text: NK cells express CD38 and are susceptible to daratumumab mediated cell lysis.

Substance: DARZALEX: immunoglobulin G1 kappa (IgG1κ) human monoclonal antibody against CD38 antigen; HC SEQ ID NO: 9, LC SEQ ID NO: 10
- CR, number of patients ([1]; 16 mg/kg, 42 patients): 1
- Overall response rate ([1]; 16 mg/kg, 42 patients): 36%
- VGPR, number of patients ([1]; 16 mg/kg, 42 patients): 3
- median duration of response ([1]; in vivo): not estimable
- median time to response ([1]; in vivo): 1 month
- incidence of any grade infusion reactions ([2]; Week 2 infusion): 2%
- Grade 3/4 infusion reaction ([2]; Week 2 or subsequent infusions): Less than 1%
- incidence of any grade infusion reactions ([2]; cumulatively, subsequent infusions): 6%
- incidence of any grade infusion reactions ([2]; first (16 mg/kg, Week 1) infusion): 37%
- incidence of infusion modification due to reactions ([2]; human, in vivo): 36%
- Hepatitis B virus reactivation ([2]; including fatal cases): less than 1%
- time of infusion reactions after completing DARZALEX ([2]; nearly all reactions, during infusion or within): ≤ 4 h
- time of infusion reactions after infusion ([2]; prior to the introduction of post-infusion medication): up to 48 hours
- patients who experienced an infusion reaction ([2]; share of all patients in clinical trials): approximately half
- time diluted solution can be stored prior to administration ([3]; refrigerated 2° C.−8° C., protected from light): up to 24 hours
- time diluted solution may be kept ([3]; room temperature, including infusion time): ≤ 15 h
- pH ([3]; solution for intravenous infusion): 5.5
- patients tested positive for anti-daratumumab antibodies ([4]; 111 evaluable monotherapy patients): none
- patients tested positive for anti-daratumumab antibodies ([4]; of the 1,050 evaluable combination therapy patients): 2
- IRRs Grade 3 or 4 ([5]; at re-initiation following ASCT): < 1%
- incidence of IRRs ([5]; first infusion following ASCT, upon re-initiation): 11%
- Indirect Antiglobulin Test (Indirect Coombs test) result [6]: positive
- persistence of positive indirect antiglobulin test after the last infusion [6]: up to 6 months
- potential to delay ventricular repolarization [7]: no evidence
- Anemia, laboratory abnormality ([8]; Any Grade): 45%
- Arthralgia ([8]; Any Grade): 17%
- Back pain ([8]; Any Grade): 23%
- Chills ([8]; Any Grade): 10%
- Constipation ([8]; Any Grade): 15%
- Cough ([8]; Any Grade): 21%
- Decreased appetite ([8]; Any Grade): 15%
- Diarrhea ([8]; Any Grade): 16%
- Dyspnea ([8]; Any Grade): 15%
- Fatigue ([8]; Any Grade): 39%
- Headache ([8]; Any Grade): 12%
- Hypertension ([8]; Any Grade): 10%
- Infusion reaction ([8]; Any Grade): 48%
- Lymphopenia, laboratory abnormality ([8]; Any Grade): 72%
- Musculoskeletal chest pain ([8]; Any Grade): 12%
- Nasal congestion ([8]; Any Grade): 17%
- Nasopharyngitis ([8]; Any Grade): 15%
- Nausea ([8]; Any Grade): 27%
- Neutropenia, laboratory abnormality ([8]; Any Grade): 60%
- Pain in extremity ([8]; Any Grade): 15%
- Pneumonia ([8]; Any Grade): 11%
- Pyrexia ([8]; Any Grade): 21%
- Thrombocytopenia, laboratory abnormality ([8]; Any Grade): 48%
- Upper respiratory tract infection ([8]; Any Grade): 20%
- Vomiting ([8]; Any Grade): 14%
- Anemia, laboratory abnormality ([8]; Grade 3): 19%
- Arthralgia ([8]; Grade 3): 0%
- Back pain ([8]; Grade 3): 2%
- Chills ([8]; Grade 3): 0%
- Constipation ([8]; Grade 3): 0%
- Cough ([8]; Grade 3): 0%
- Decreased appetite ([8]; Grade 3): 1%
- Diarrhea ([8]; Grade 3): 1%
- Dyspnea ([8]; Grade 3): 1%
- Fatigue ([8]; Grade 3): 2%
- Headache ([8]; Grade 3): 1%
- Hypertension ([8]; Grade 3): 5%
- Infusion reaction ([8]; Grade 3): 3%
- Lymphopenia, laboratory abnormality ([8]; Grade 3): 30%
- Musculoskeletal chest pain ([8]; Grade 3): 1%
- Nasal congestion ([8]; Grade 3): 0%
- Nasopharyngitis ([8]; Grade 3): 0%
- Nausea ([8]; Grade 3): 0%
- Neutropenia, laboratory abnormality ([8]; Grade 3): 17%
- Pain in extremity ([8]; Grade 3): 1%
- Pneumonia ([8]; Grade 3): 6%
- Pyrexia ([8]; Grade 3): 1%
- Thrombocytopenia, laboratory abnormality ([8]; Grade 3): 10%
- Upper respiratory tract infection ([8]; Grade 3): 1%
- Vomiting ([8]; Grade 3): 0%
- Anemia, laboratory abnormality ([8]; Grade 4): 0%
- Arthralgia ([8]; Grade 4): 0%
- Back pain ([8]; Grade 4): 0%
- Chills ([8]; Grade 4): 0%
- Constipation ([8]; Grade 4): 0%
- Cough ([8]; Grade 4): 0%
- Decreased appetite ([8]; Grade 4): 0%
- Diarrhea ([8]; Grade 4): 0%
- Dyspnea ([8]; Grade 4): 0%
- Fatigue ([8]; Grade 4): 0%
- Headache ([8]; Grade 4): 0%
- Hypertension ([8]; Grade 4): 0%
- Infusion reaction ([8]; Grade 4): 0%
- Lymphopenia, laboratory abnormality ([8]; Grade 4): 10%
- Musculoskeletal chest pain ([8]; Grade 4): 0%
- Nasal congestion ([8]; Grade 4): 0%
- Nasopharyngitis ([8]; Grade 4): 0%
- Nausea ([8]; Grade 4): 0%
- Neutropenia, laboratory abnormality ([8]; Grade 4): 3%
- Pain in extremity ([8]; Grade 4): 0%
- Pneumonia ([8]; Grade 4): 0%
- Pyrexia ([8]; Grade 4): 0%
- Thrombocytopenia, laboratory abnormality ([8]; Grade 4): 8%
- Upper respiratory tract infection ([8]; Grade 4): 0%
- Vomiting ([8]; Grade 4): 0%
- serious adverse reactions ([8]; monotherapy 16 mg/kg, 156 patients): 33%
- area under the concentration-time curve (AUC), dose dependence ([9]; 1 to 24 mg/kg monotherapy or 1 to 16 mg/kg combination therapy): increases more than proportionally
- drug-drug interactions between daratumumab and lenalidomide, pomalidomide, bortezomib and dexamethasone ([9]; clinical pharmacokinetic assessments): no clinically relevant drug-drug interactions
- terminal half-life compared with monotherapy ([9]; combination therapy): similar
- volume of distribution ([9]; combination therapy): 4.4 ± 1.5 L
- trough serum concentration (Cmin), mean±SD ([9]; end of weekly dosing, monotherapy): 573 ± 332 µg/mL
- central volume of distribution and clearance with increasing body weight ([9]; human, in vivo): increased
- clearance with increasing dose and with multiple dosing ([9]; human, in vivo): decreased
- linear clearance, mean±SD ([9]; monotherapy): 171.4 ± 95.3 mL/day
- terminal half-life associated with linear clearance, mean±SD ([9]; monotherapy): 18 ± 9 days
- volume of distribution ([9]; monotherapy): 4.7 ± 1.3 L
- differences in pharmacokinetics based on sex, age, mild and moderate hepatic impairment, or renal impairment ([9]; monotherapy or combination therapy): No clinically significant differences
- time to steady state ([9]; monotherapy, into the every 4-week dosing period (by the 21st infusion)): approximately 5 months
- Overall response rate (ORR) ([10]; N = 106): 29.2%
- Partial response (PR) ([10]; in vivo): 17.0%
- Stringent complete response (sCR) ([10]; in vivo): 2.8%
- Very good partial response (VGPR) ([10]; in vivo): 9.4%
- median duration of response ([10]; in vivo): 7.4 months
- median time to response ([10]; in vivo): 1 month
- Complete response (CR) ([10]; number of patients): 0
- Overall response rate (ORR) ([10]; number of patients): 31
- Partial response (PR) ([10]; number of patients): 18
- Stringent complete response (sCR) ([10]; number of patients): 3
- Very good partial response (VGPR) ([10]; number of patients): 10
- absolute counts and percentages of total NK cells and activated NK cells [11]: Decreases
